Experimental data from PMC3145109.

Target: T1, KmtR (UniProt O53838 1-130)
T1 sequence: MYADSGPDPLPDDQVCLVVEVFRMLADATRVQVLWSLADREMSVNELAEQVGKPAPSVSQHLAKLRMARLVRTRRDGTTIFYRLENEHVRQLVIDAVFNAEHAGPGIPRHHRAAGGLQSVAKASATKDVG
Experiment: fluorescence anisotropy

B1: PRv0286 32-mer (Rv0826 promoter) (dsDNA)
DNA 1: TCCATAGTGACAACGTGCGTAGTCAGAATTCG
DNA 2: CGAATTCTGACTACGCACGTTGTCACTATGGA
binding result: no binding
